Source: patent US12679878B2, “CRF2 receptor agonists and their use in therapy” (SANOFI, priority 2020, dated 2026)
Starred links: 1 amine or outer side, 2 acyl side, 3 side chain; linkers in the order of their positions; H or OH if unused. Non-standard residues stand in square brackets, D forms with d. Groups on a side chain read outwards from the residue. No end group written: not given here. *: point of attachment. C18 diacid = O=C(O)CCCCCCCCCCCCCCCCC(=O)*; γGlu = O=C(O)[C@H](CCC(=O)[*:2])N[*:1]; AEEA = NCCOCCOCC(=O)O; Aib = CC(C)(N)C(=O)O

B1: SEQ ID NO: 40 (peptide)
peptide: IVLSLDVPIKLK([AEEA-AEEA-γGlu-C18 diacid])QILLEQERQRKERQQAETNVQILAQV-NH2
modifications: N-terminus assumed
SMILES: CC[C@H](C)[C@H](N)C(=O)N[C@H](C(=O)N[C@@H](CC(C)C)C(=O)N[C@@H](CO)C(=O)N[C@@H](CC(C)C)C(=O)N[C@@H](CC(=O)O)C(=O)N[C@H](C(=O)N1CCC[C@H]1C(=O)N[C@H](C(=O)N[C@@H](CCCCN)C(=O)N[C@@H](CC(C)C)C(=O)N[C@@H](CCCCNC(=O)COCCOCCNC(=O)COCCOCCNC(=O)CC[C@H](NC(=O)CCCCCCCCCCCCCCCCC(=O)O)C(=O)O)C(=O)N[C@@H](CCC(N)=O)C(=O)N[C@H](C(=O)N[C@@H](CC(C)C)C(=O)N[C@@H](CC(C)C)C(=O)N[C@@H](CCC(=O)O)C(=O)N[C@@H](CCC(N)=O)C(=O)N[C@@H](CCC(=O)O)C(=O)N[C@@H](CCCNC(=N)N)C(=O)N[C@@H](CCC(N)=O)C(=O)N[C@@H](CCCNC(=N)N)C(=O)N[C@@H](CCCCN)C(=O)N[C@@H](CCC(=O)O)C(=O)N[C@@H](CCCNC(=N)N)C(=O)N[C@@H](CCC(N)=O)C(=O)N[C@@H](CCC(N)=O)C(=O)N[C@@H](C)C(=O)N[C@@H](CCC(=O)O)C(=O)N[C@H](C(=O)N[C@@H](CC(N)=O)C(=O)N[C@H](C(=O)N[C@@H](CCC(N)=O)C(=O)N[C@H](C(=O)N[C@@H](CC(C)C)C(=O)N[C@@H](C)C(=O)N[C@@H](CCC(N)=O)C(=O)N[C@H](C(N)=O)C(C)C)[C@@H](C)CC)C(C)C)[C@@H](C)O)[C@@H](C)CC)[C@@H](C)CC)C(C)C)C(C)C
B2: SEQ ID NO: 41 (peptide)
peptide: IVLSLDVPIKLK([AEEA-AEEA-γGlu-C18 diacid])QILLEQERQRKERQQAEKNVRILERV-NH2
modifications: N-terminus assumed
SMILES: CC[C@H](C)[C@H](N)C(=O)N[C@H](C(=O)N[C@@H](CC(C)C)C(=O)N[C@@H](CO)C(=O)N[C@@H](CC(C)C)C(=O)N[C@@H](CC(=O)O)C(=O)N[C@H](C(=O)N1CCC[C@H]1C(=O)N[C@H](C(=O)N[C@@H](CCCCN)C(=O)N[C@@H](CC(C)C)C(=O)N[C@@H](CCCCNC(=O)COCCOCCNC(=O)COCCOCCNC(=O)CC[C@H](NC(=O)CCCCCCCCCCCCCCCCC(=O)O)C(=O)O)C(=O)N[C@@H](CCC(N)=O)C(=O)N[C@H](C(=O)N[C@@H](CC(C)C)C(=O)N[C@@H](CC(C)C)C(=O)N[C@@H](CCC(=O)O)C(=O)N[C@@H](CCC(N)=O)C(=O)N[C@@H](CCC(=O)O)C(=O)N[C@@H](CCCNC(=N)N)C(=O)N[C@@H](CCC(N)=O)C(=O)N[C@@H](CCCNC(=N)N)C(=O)N[C@@H](CCCCN)C(=O)N[C@@H](CCC(=O)O)C(=O)N[C@@H](CCCNC(=N)N)C(=O)N[C@@H](CCC(N)=O)C(=O)N[C@@H](CCC(N)=O)C(=O)N[C@@H](C)C(=O)N[C@@H](CCC(=O)O)C(=O)N[C@@H](CCCCN)C(=O)N[C@@H](CC(N)=O)C(=O)N[C@H](C(=O)N[C@@H](CCCNC(=N)N)C(=O)N[C@H](C(=O)N[C@@H](CC(C)C)C(=O)N[C@@H](CCC(=O)O)C(=O)N[C@@H](CCCNC(=N)N)C(=O)N[C@H](C(N)=O)C(C)C)[C@@H](C)CC)C(C)C)[C@@H](C)CC)[C@@H](C)CC)C(C)C)C(C)C
B3: SEQ ID NO: 39 (peptide)
peptide: IVLSLDVPIKLK([AEEA-AEEA-γGlu-C18 diacid])QILLEQERQRKERQQAETNAQILAQV-NH2
modifications: N-terminus assumed
SMILES: CC[C@H](C)[C@H](N)C(=O)N[C@H](C(=O)N[C@@H](CC(C)C)C(=O)N[C@@H](CO)C(=O)N[C@@H](CC(C)C)C(=O)N[C@@H](CC(=O)O)C(=O)N[C@H](C(=O)N1CCC[C@H]1C(=O)N[C@H](C(=O)N[C@@H](CCCCN)C(=O)N[C@@H](CC(C)C)C(=O)N[C@@H](CCCCNC(=O)COCCOCCNC(=O)COCCOCCNC(=O)CC[C@H](NC(=O)CCCCCCCCCCCCCCCCC(=O)O)C(=O)O)C(=O)N[C@@H](CCC(N)=O)C(=O)N[C@H](C(=O)N[C@@H](CC(C)C)C(=O)N[C@@H](CC(C)C)C(=O)N[C@@H](CCC(=O)O)C(=O)N[C@@H](CCC(N)=O)C(=O)N[C@@H](CCC(=O)O)C(=O)N[C@@H](CCCNC(=N)N)C(=O)N[C@@H](CCC(N)=O)C(=O)N[C@@H](CCCNC(=N)N)C(=O)N[C@@H](CCCCN)C(=O)N[C@@H](CCC(=O)O)C(=O)N[C@@H](CCCNC(=N)N)C(=O)N[C@@H](CCC(N)=O)C(=O)N[C@@H](CCC(N)=O)C(=O)N[C@@H](C)C(=O)N[C@@H](CCC(=O)O)C(=O)N[C@H](C(=O)N[C@@H](CC(N)=O)C(=O)N[C@@H](C)C(=O)N[C@@H](CCC(N)=O)C(=O)N[C@H](C(=O)N[C@@H](CC(C)C)C(=O)N[C@@H](C)C(=O)N[C@@H](CCC(N)=O)C(=O)N[C@H](C(N)=O)C(C)C)[C@@H](C)CC)[C@@H](C)O)[C@@H](C)CC)[C@@H](C)CC)C(C)C)C(C)C
B4: SEQ ID NO: 38 (peptide)
peptide: IVLSLDVPTKLK([AEEA-AEEA-γGlu-C18 diacid])QKLLKQERQR[Aib]ERQQAETNKRILERV-NH2
modifications: N-terminus assumed
SMILES: CC[C@H](C)[C@H](N)C(=O)N[C@H](C(=O)N[C@@H](CC(C)C)C(=O)N[C@@H](CO)C(=O)N[C@@H](CC(C)C)C(=O)N[C@@H](CC(=O)O)C(=O)N[C@H](C(=O)N1CCC[C@H]1C(=O)N[C@H](C(=O)N[C@@H](CCCCN)C(=O)N[C@@H](CC(C)C)C(=O)N[C@@H](CCCCNC(=O)COCCOCCNC(=O)COCCOCCNC(=O)CC[C@H](NC(=O)CCCCCCCCCCCCCCCCC(=O)O)C(=O)O)C(=O)N[C@@H](CCC(N)=O)C(=O)N[C@@H](CCCCN)C(=O)N[C@@H](CC(C)C)C(=O)N[C@@H](CC(C)C)C(=O)N[C@@H](CCCCN)C(=O)N[C@@H](CCC(N)=O)C(=O)N[C@@H](CCC(=O)O)C(=O)N[C@@H](CCCNC(=N)N)C(=O)N[C@@H](CCC(N)=O)C(=O)N[C@@H](CCCNC(=N)N)C(=O)NC(C)(C)C(=O)N[C@@H](CCC(=O)O)C(=O)N[C@@H](CCCNC(=N)N)C(=O)N[C@@H](CCC(N)=O)C(=O)N[C@@H](CCC(N)=O)C(=O)N[C@@H](C)C(=O)N[C@@H](CCC(=O)O)C(=O)N[C@H](C(=O)N[C@@H](CC(N)=O)C(=O)N[C@@H](CCCCN)C(=O)N[C@@H](CCCNC(=N)N)C(=O)N[C@H](C(=O)N[C@@H](CC(C)C)C(=O)N[C@@H](CCC(=O)O)C(=O)N[C@@H](CCCNC(=N)N)C(=O)N[C@H](C(N)=O)C(C)C)[C@@H](C)CC)[C@@H](C)O)[C@@H](C)O)C(C)C)C(C)C
B5: SEQ ID NO: 36 (peptide)
peptide: IVLSLD[dV]PTKLK([AEEA-AEEA-γGlu-C18 diacid])QKLLKQERQRK[Aib]REQAEKNKRILERV-NH2
modifications: N-terminus assumed
SMILES: CC[C@H](C)[C@H](N)C(=O)N[C@H](C(=O)N[C@@H](CC(C)C)C(=O)N[C@@H](CO)C(=O)N[C@@H](CC(C)C)C(=O)N[C@@H](CC(=O)O)C(=O)N[C@@H](C(=O)N1CCC[C@H]1C(=O)N[C@H](C(=O)N[C@@H](CCCCN)C(=O)N[C@@H](CC(C)C)C(=O)N[C@@H](CCCCNC(=O)COCCOCCNC(=O)COCCOCCNC(=O)CC[C@H](NC(=O)CCCCCCCCCCCCCCCCC(=O)O)C(=O)O)C(=O)N[C@@H](CCC(N)=O)C(=O)N[C@@H](CCCCN)C(=O)N[C@@H](CC(C)C)C(=O)N[C@@H](CC(C)C)C(=O)N[C@@H](CCCCN)C(=O)N[C@@H](CCC(N)=O)C(=O)N[C@@H](CCC(=O)O)C(=O)N[C@@H](CCCNC(=N)N)C(=O)N[C@@H](CCC(N)=O)C(=O)N[C@@H](CCCNC(=N)N)C(=O)N[C@@H](CCCCN)C(=O)NC(C)(C)C(=O)N[C@@H](CCCNC(=N)N)C(=O)N[C@@H](CCC(=O)O)C(=O)N[C@@H](CCC(N)=O)C(=O)N[C@@H](C)C(=O)N[C@@H](CCC(=O)O)C(=O)N[C@@H](CCCCN)C(=O)N[C@@H](CC(N)=O)C(=O)N[C@@H](CCCCN)C(=O)N[C@@H](CCCNC(=N)N)C(=O)N[C@H](C(=O)N[C@@H](CC(C)C)C(=O)N[C@@H](CCC(=O)O)C(=O)N[C@@H](CCCNC(=N)N)C(=O)N[C@H](C(N)=O)C(C)C)[C@@H](C)CC)[C@@H](C)O)C(C)C)C(C)C
B6: SEQ ID NO: 37 (peptide)
peptide: IVLSLDVPTKLK([AEEA-AEEA-γGlu-C18 diacid])QKLLKQERQRKERQQAETNKRILERV-NH2
modifications: N-terminus assumed
SMILES: CC[C@H](C)[C@H](N)C(=O)N[C@H](C(=O)N[C@@H](CC(C)C)C(=O)N[C@@H](CO)C(=O)N[C@@H](CC(C)C)C(=O)N[C@@H](CC(=O)O)C(=O)N[C@H](C(=O)N1CCC[C@H]1C(=O)N[C@H](C(=O)N[C@@H](CCCCN)C(=O)N[C@@H](CC(C)C)C(=O)N[C@@H](CCCCNC(=O)COCCOCCNC(=O)COCCOCCNC(=O)CC[C@H](NC(=O)CCCCCCCCCCCCCCCCC(=O)O)C(=O)O)C(=O)N[C@@H](CCC(N)=O)C(=O)N[C@@H](CCCCN)C(=O)N[C@@H](CC(C)C)C(=O)N[C@@H](CC(C)C)C(=O)N[C@@H](CCCCN)C(=O)N[C@@H](CCC(N)=O)C(=O)N[C@@H](CCC(=O)O)C(=O)N[C@@H](CCCNC(=N)N)C(=O)N[C@@H](CCC(N)=O)C(=O)N[C@@H](CCCNC(=N)N)C(=O)N[C@@H](CCCCN)C(=O)N[C@@H](CCC(=O)O)C(=O)N[C@@H](CCCNC(=N)N)C(=O)N[C@@H](CCC(N)=O)C(=O)N[C@@H](CCC(N)=O)C(=O)N[C@@H](C)C(=O)N[C@@H](CCC(=O)O)C(=O)N[C@H](C(=O)N[C@@H](CC(N)=O)C(=O)N[C@@H](CCCCN)C(=O)N[C@@H](CCCNC(=N)N)C(=O)N[C@H](C(=O)N[C@@H](CC(C)C)C(=O)N[C@@H](CCC(=O)O)C(=O)N[C@@H](CCCNC(=N)N)C(=O)N[C@H](C(N)=O)C(C)C)[C@@H](C)CC)[C@@H](C)O)[C@@H](C)O)C(C)C)C(C)C

molecular target: human corticotropin-releasing factor 2α (CRF2 α receptor) (human), Q13324; test: cell-based or functional assay
Sequence (Q13324 20-411): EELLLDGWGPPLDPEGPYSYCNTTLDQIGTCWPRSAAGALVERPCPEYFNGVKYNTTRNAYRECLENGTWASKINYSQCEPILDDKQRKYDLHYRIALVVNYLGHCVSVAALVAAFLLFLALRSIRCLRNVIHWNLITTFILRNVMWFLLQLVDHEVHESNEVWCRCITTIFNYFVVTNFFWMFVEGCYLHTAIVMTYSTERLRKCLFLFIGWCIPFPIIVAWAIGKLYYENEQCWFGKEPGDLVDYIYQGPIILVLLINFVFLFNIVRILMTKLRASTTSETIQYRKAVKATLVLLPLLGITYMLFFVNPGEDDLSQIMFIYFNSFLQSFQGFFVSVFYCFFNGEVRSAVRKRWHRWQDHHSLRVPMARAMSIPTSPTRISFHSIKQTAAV

Q: How did the EC50 [nM], 0% HSA turn out when B1 was run?
A: 15.4 nM

Q: Which EC50 [nM], 0% HSA does the source give for B2 here?
A: 15.6 nM

Q: B3 was tested. Which EC50 [nM], 0% HSA did it give?
A: 0.65 nM

Q: B4 was tested. Which EC50 [nM], 0% HSA did it give?
A: 20.9 nM

Q: With B5 as the binder, how does the EC50 [nM], 0% HSA read?
A: 1.45 nM

Q: For B6, which EC50 [nM], 0% HSA is on record?
A: 1.6 nM
